# Laboratory results: patent US20260176659A1, “IMPROVED METHOD FOR THE PRODUCTION OF NATURAL VANILLIN” (BASE SE, priority 2022, published 2026)
# B1: IECO: isoeugenol cleavage oxygenase from Pseudomonas nitroreducens (GenBank: ACP17973), SEQ ID NO: 24 (protein, listed as Pseudomonas nitroreducens)
# chain: MARLNRNDPQLVGTLLPTRIEADLFDLEVDGEIPKSINGTFYRNTPEPQVTPQKFHTFIDGDGMASAFHFEDGHVDFISRWVKTARFTAERLARKSLFGMYRNPYTDDTSVKGLDRTVANTSIISHHGKVLAVKEDGLPYELDPRTLETRGRFDYDGQVTSQTHTAHPKYDPETGDLLFFGSAAKGEATPDMAYYIVDKHGKVTHETWFEQPYGAFMHDFAITRNWSIFPIMPATNSLSRLKAKQPIYMWEPELGSYIGVLPRRGQGSQIRWLKAPALWVFHVVNAWEVGTKIYIDLMESEILPFPFPNSQNQPFAPEKAVPRLTRWEIDLDSSSDEIKRTRLHDFFAEMPIMDFRFALQCNRYGFMGVDDPRKPLAHQQAEKIFAYNSLGIWDNHRGDYDLWYSGEASAAQEPAFVPRSPTAAEGDGYLLTVVGRLDENRSDLVILDTQDIQSGPVATIKLPFRLRAALHGCWVPRP
# Experiment: Bioconversion of eugenol to vanillin: one-pot concurrent cascade EUGO + alkene cleavage oxygenase (5 mM scale)
# Assay type: biochemical
# Conditions: for Reaction composition at 24 hours (%) 1a / Reaction composition at 24 hours (%) 2a / Reaction composition at 24 hours (%) 3a / Reaction composition at 24 hours (%) 5a / Conversion of 1a to 3a (%): 5 mM 1a; for Conversion of 1a to 3a (%): 24 h; for Reaction composition after 24 hours 1a (%) / Reaction composition after 24 hours 2a (%) / Reaction composition after 24 hours 3a (%) / Reaction composition after 24 hours 5a (%): Table 8a, CO-XX FD-CFE 1 mg/mL; for Reaction composition after 24 hours 1a (%) / Reaction composition after 24 hours 2a (%) / Reaction composition after 24 hours 3a (%) / Reaction composition after 24 hours 5a (%) / Product distribution after 24 hours 2a (%) / Product distribution after 24 hours 3a (%) / Product distribution after 24 hours 5a (%): eugenol 5 mM; for Product distribution after 24 hours 2a (%) / Product distribution after 24 hours 3a (%) / Product distribution after 24 hours 5a (%): Table 8b, CO-0X FD-CFE 1 mg/mL
# Method in brief: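 Cell-free extracts of EUGO (0.5 mg) and cleavage oxygenase (3 mg) were combined with catalase, 1 mM FeSO4 and 1 mM ascorbate in glycine-NaOH pH 9.0 (or Tris-HCl pH 8.0). The cascade ran with 5 mM eugenol (5% ethanol/DMSO cosolvent) at 30° C and 120 rpm overnight. Methanol-quenched samples were analysed by HPLC at 280/340 nm.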
# [1] = EUGO 0 mg/mL, IECO fresh CFE 4 mg/mL, cosolvent DMSO 5% v/v
# [2] = EUGO 0 mg/mL, IECO fresh CFE 4 mg/mL, cosolvent EtOH 5% v/v
# [3] = EUGO FD-CFE 1 mg/mL (row prints 2, see doubts), IECO FD-CFE 4 mg/mL, pH 9.0, catalase 10 mg/mL
# [4] = EUGO FD-CFE 1 mg/mL, IECO FD-CFE 4 mg/mL, pH 8.0, catalase 10 mg/mL
# [5] = EUGO FD-CFE 1 mg/mL, IECO FD-CFE 6 mg/mL, pH 8.0, catalase 10 mg/mL
# [6] = EUGO FD-CFE 1 mg/mL, IECO FD-CFE 6 mg/mL, pH 9.0, catalase 10 mg/mL
# [7] = EUGO FD-CFE 2 mg/mL, IECO FD-CFE 4 mg/mL, pH 8.0, catalase 10 mg/mL
# [8] = EUGO FD-CFE 2 mg/mL, IECO FD-CFE 4 mg/mL, pH 9.0, catalase 10 mg/mL
# [9] = EUGO FD-CFE 2 mg/mL, IECO FD-CFE 6 mg/mL, pH 8.0, catalase 10 mg/mL
# [10] = EUGO FD-CFE 2 mg/mL, IECO FD-CFE 6 mg/mL, pH 9.0, catalase 10 mg/mL
# [11] = EUGO FD-CFE 5 mg/mL, IECO FD-CFE 20 mg/mL, pH 8.0, catalase 10 mg/mL
# [12] = EUGO FD-CFE 5 mg/mL, IECO FD-CFE 20 mg/mL, pH 9.0, catalase 10 mg/mL
# [13] = EUGO fresh CFE 1 mg/mL, IECO fresh CFE 4 mg/mL, cosolvent DMSO 5% v/v
# [14] = EUGO fresh CFE 1 mg/mL, IECO fresh CFE 4 mg/mL, cosolvent EtOH 5% v/v
# [15] = EUGO FD-CFE 1 mg/mL, catalase 10 mg/mL, pH 8.0
# [16] = EUGO FD-CFE 1 mg/mL, catalase 10 mg/mL, pH 9.0
# [17] = replicates of concurrent cascade with EUGO, pH 8.0, SD of four experiments
# [18] = replicates of concurrent cascade with EUGO, pH 9.0, SD of four experiments
molecule,measurement,setting,value
B1,Reaction composition at 24 hours (%) 1a,[1],97%
same,Reaction composition at 24 hours (%) 2a,[1],2≤ %
same,Reaction composition at 24 hours (%) 3a,[1],1≤ %
same,Reaction composition at 24 hours (%) 5a,[1],1≤ %
same,Conversion of 1a to 3a (%),[1],1≤ %
same,Reaction composition at 24 hours (%) 1a,[2],97%
same,Reaction composition at 24 hours (%) 2a,[2],2≤ %
same,Reaction composition at 24 hours (%) 3a,[2],1≤ %
same,Reaction composition at 24 hours (%) 5a,[2],1≤ %
same,Conversion of 1a to 3a (%),[2],1≤ %
same,Reaction composition at 24 hours (%) 1a,[3],2%
same,Reaction composition at 24 hours (%) 2a,[3],3%
same,Reaction composition at 24 hours (%) 3a,[3],53%
same,Reaction composition at 24 hours (%) 5a,[3],1≤ %
same,Conversion of 1a to 3a (%),[3],45%
same,Reaction composition at 24 hours (%) 1a,[4],1%
same,Reaction composition at 24 hours (%) 2a,[4],5%
same,Reaction composition at 24 hours (%) 3a,[4],45%
same,Reaction composition at 24 hours (%) 5a,[4],1≤ %
same,Conversion of 1a to 3a (%),[4],40%
same,Reaction composition at 24 hours (%) 1a,[5],2%
same,Reaction composition at 24 hours (%) 2a,[5],4%
same,Reaction composition at 24 hours (%) 3a,[5],49%
same,Reaction composition at 24 hours (%) 5a,[5],1%
same,Conversion of 1a to 3a (%),[5],44%
same,Reaction composition at 24 hours (%) 1a,[6],3%
same,Reaction composition at 24 hours (%) 2a,[6],3%
same,Reaction composition at 24 hours (%) 3a,[6],59%
same,Reaction composition at 24 hours (%) 5a,[6],1%
same,Conversion of 1a to 3a (%),[6],50%
same,Reaction composition at 24 hours (%) 1a,[7],2%
same,Reaction composition at 24 hours (%) 2a,[7],4%
same,Reaction composition at 24 hours (%) 3a,[7],48%
same,Reaction composition at 24 hours (%) 5a,[7],2%
same,Conversion of 1a to 3a (%),[7],40%
same,Reaction composition at 24 hours (%) 1a,[8],1%
same,Reaction composition at 24 hours (%) 2a,[8],4%
same,Reaction composition at 24 hours (%) 3a,[8],52%
same,Reaction composition at 24 hours (%) 5a,[8],2%
same,Conversion of 1a to 3a (%),[8],44%
same,Reaction composition at 24 hours (%) 1a,[9],3%
same,Reaction composition at 24 hours (%) 2a,[9],5%
same,Reaction composition at 24 hours (%) 3a,[9],44%
same,Reaction composition at 24 hours (%) 5a,[9],3%
same,Conversion of 1a to 3a (%),[9],41%
same,Reaction composition at 24 hours (%) 1a,[10],3%
same,Reaction composition at 24 hours (%) 2a,[10],4%
same,Reaction composition at 24 hours (%) 3a,[10],50%
same,Reaction composition at 24 hours (%) 5a,[10],2%
same,Conversion of 1a to 3a (%),[10],49%
same,Reaction composition at 24 hours (%) 1a,[11],1≤ %
same,Reaction composition at 24 hours (%) 2a,[11],27%
same,Reaction composition at 24 hours (%) 3a,[11],9%
same,Reaction composition at 24 hours (%) 5a,[11],6%
same,Conversion of 1a to 3a (%),[11],8%
same,Reaction composition at 24 hours (%) 1a,[12],1≤ %
same,Reaction composition at 24 hours (%) 2a,[12],18%
same,Reaction composition at 24 hours (%) 3a,[12],15%
same,Reaction composition at 24 hours (%) 5a,[12],5%
same,Conversion of 1a to 3a (%),[12],13%
same,Reaction composition at 24 hours (%) 1a,[13],3%
same,Reaction composition at 24 hours (%) 2a,[13],49%
same,Reaction composition at 24 hours (%) 3a,[13],44 ^ %
same,Reaction composition at 24 hours (%) 5a,[13],4%
same,Conversion of 1a to 3a (%),[13],42 ^ %
same,Reaction composition at 24 hours (%) 1a,[14],4%
same,Reaction composition at 24 hours (%) 2a,[14],5%
same,Reaction composition at 24 hours (%) 3a,[14],86 ^ %
same,Reaction composition at 24 hours (%) 5a,[14],5%
same,Conversion of 1a to 3a (%),[14],48 ^ %
same,Reaction composition after 24 hours 1a (%),[15],51%
same,Reaction composition after 24 hours 2a (%),[15],52%
same,Reaction composition after 24 hours 3a (%),[15],36%
same,Reaction composition after 24 hours 5a (%),[15],12%
same,Reaction composition after 24 hours 1a (%),[16],≤1%
same,Reaction composition after 24 hours 2a (%),[16],24%
same,Reaction composition after 24 hours 3a (%),[16],59%
same,Reaction composition after 24 hours 5a (%),[16],18%
same,Product distribution after 24 hours 2a (%),[15],67.8%
same,Product distribution after 24 hours 3a (%),[15],17.6%
same,Product distribution after 24 hours 5a (%),[15],14.6%
same,Product distribution after 24 hours 2a (%),[16],49.4%
same,Product distribution after 24 hours 3a (%),[16],30.7%
same,Product distribution after 24 hours 5a (%),[16],19.9%
same,Conversion of 1a to 3a (%),[17],31 ± 2%
same,Reaction composition at 24 hours (%) 1a,[17],1≤ %
same,Reaction composition at 24 hours (%) 2a,[17],51 ± 2%
same,Reaction composition at 24 hours (%) 3a,[17],34 ± 2%
same,Reaction composition at 24 hours (%) 5a,[17],15 ± 3%
same,Conversion of 1a to 3a (%),[18],52 ± 3%
same,Reaction composition at 24 hours (%) 1a,[18],1≤ %
same,Reaction composition at 24 hours (%) 2a,[18],22 ± 2%
same,Reaction composition at 24 hours (%) 3a,[18],59 ± 1%
same,Reaction composition at 24 hours (%) 5a,[18],18 ± 1%
same,overall conversion of 1a to vanillin 3a in the 2-step cascade,"with EUGO, 5 mM substrate concentration",50%
